In patent publication US20090029376:
Numbering of substitutions follows the chain as printed.

Legend:
Assay in all cases: cleavage_in_vitro
[1] = target: EcoRI (Escherichia coli RY13) (UniProt P00642); details: NEB4, 37 C
[2] = test system: T1, NcoI (Nocardia corallina); details: NEB4, 37 C
T1 sequence: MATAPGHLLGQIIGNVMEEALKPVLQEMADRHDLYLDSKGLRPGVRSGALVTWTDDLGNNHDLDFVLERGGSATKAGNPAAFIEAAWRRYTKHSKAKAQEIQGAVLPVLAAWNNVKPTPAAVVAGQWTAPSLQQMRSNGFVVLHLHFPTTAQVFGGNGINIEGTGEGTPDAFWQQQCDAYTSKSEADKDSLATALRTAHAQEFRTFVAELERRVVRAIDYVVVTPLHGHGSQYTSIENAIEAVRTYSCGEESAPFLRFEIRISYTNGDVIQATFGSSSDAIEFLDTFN

[3] = target: T2, BamHI (Bacillus amyloliquefaciens) (UniProt P23940); details: NEB4, 37 C
T2 sequence: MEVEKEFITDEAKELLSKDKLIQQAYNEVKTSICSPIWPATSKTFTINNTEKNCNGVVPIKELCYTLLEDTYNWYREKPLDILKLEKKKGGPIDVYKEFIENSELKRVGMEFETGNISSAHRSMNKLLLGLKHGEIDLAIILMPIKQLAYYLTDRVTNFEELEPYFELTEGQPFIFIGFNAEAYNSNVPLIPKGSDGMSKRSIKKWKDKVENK

[4] = test system: T3, BstXI (Bacillus stearothermophilus); details: NEB4, 55 C; Table 2 prints 4
T3 sequence: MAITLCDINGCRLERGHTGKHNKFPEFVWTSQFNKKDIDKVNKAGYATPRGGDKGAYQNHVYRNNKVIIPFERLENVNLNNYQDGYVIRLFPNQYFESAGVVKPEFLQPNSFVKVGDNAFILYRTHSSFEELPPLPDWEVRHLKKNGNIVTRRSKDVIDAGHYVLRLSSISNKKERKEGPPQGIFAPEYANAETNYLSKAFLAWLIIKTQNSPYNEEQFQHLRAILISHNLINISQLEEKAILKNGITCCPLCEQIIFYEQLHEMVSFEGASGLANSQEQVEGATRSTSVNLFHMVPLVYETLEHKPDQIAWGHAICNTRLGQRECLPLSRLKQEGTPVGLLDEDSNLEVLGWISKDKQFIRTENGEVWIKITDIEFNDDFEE

[5] = test system: T4, BsmBI-HF N185Y/R232A (Bacillus stearothermophilus); details: NEB4, 55 C
T4 sequence: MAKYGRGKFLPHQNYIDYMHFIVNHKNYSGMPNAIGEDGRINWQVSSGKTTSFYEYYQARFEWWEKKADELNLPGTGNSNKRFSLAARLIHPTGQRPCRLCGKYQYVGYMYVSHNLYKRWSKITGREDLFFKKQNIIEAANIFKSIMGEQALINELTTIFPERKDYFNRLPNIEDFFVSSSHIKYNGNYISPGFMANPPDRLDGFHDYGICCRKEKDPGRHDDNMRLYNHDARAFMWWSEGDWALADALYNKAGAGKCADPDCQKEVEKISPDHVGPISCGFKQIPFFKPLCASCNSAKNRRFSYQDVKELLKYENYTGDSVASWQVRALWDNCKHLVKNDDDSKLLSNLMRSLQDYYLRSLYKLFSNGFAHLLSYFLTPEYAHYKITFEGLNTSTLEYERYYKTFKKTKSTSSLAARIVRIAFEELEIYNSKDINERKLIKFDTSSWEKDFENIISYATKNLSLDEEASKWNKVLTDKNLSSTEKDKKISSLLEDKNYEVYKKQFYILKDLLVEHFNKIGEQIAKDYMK

[6] = test system: T5, SspI-HF Y98F (Sphaerotilus species); details: NEB4, 37 C
T5 sequence: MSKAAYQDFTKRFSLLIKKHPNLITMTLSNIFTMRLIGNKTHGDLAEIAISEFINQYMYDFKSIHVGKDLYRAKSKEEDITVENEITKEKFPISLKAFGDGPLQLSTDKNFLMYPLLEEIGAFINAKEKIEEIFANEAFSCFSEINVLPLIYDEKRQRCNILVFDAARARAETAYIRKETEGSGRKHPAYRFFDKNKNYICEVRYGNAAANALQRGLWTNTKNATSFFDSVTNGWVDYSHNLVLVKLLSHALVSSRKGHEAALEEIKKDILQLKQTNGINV

[7] = test system: T6, SspI (Sphaerotilus species); details: NEB4, 37 C
T6 sequence: T5 sequence with F98Y

[8] = target: EcoRI(K62A) K62A (Escherichia coli RY13) (UniProt P00642); details: NEB4, 37 C
[9] = target: T7, HindIII (Haemophilus influenzae Rd) (UniProt P43870); details: NEB4, 37 C
T7 sequence: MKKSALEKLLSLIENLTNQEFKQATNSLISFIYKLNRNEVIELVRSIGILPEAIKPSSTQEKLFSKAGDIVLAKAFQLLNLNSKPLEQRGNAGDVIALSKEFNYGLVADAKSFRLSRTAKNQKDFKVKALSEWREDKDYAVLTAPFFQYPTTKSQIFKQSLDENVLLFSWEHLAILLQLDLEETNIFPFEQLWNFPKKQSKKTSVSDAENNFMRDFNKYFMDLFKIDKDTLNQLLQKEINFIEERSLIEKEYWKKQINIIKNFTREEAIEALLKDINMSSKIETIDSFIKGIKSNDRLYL

[10] = test system: T8, SbfI (Streptomyces species Bf-6); details: NEB4, 37 C
T8 sequence: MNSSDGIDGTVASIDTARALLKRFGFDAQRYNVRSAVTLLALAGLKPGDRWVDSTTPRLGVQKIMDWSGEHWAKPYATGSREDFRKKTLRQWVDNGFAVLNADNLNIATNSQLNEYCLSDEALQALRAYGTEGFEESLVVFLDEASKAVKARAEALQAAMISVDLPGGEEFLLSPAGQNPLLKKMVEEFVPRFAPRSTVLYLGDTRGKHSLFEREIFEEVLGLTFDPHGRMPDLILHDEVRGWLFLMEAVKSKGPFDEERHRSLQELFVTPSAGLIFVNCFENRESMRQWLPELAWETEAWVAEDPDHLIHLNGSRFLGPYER

## lambda phage DNA
[1]
  activity (fidelity index): 4
[2]
  activity (fidelity index): 32
[3]
  activity (fidelity index): 4
[4]
  activity (fidelity index): 32
[5]
  activity (fidelity index): > 500
[6]
  activity (fidelity index): 500
[7]
  activity (fidelity index): 16
[8]
  activity (fidelity index): 32000
[9]
  activity (fidelity index): 32
[10]
  activity (fidelity index): 8
